According to patent US20220073616A1 (Merck KGaA, published 2022):
Like-named read-outs stand apart in the source and are kept apart here.

Tests used:
[1] = molecular target: T1, wild-type human TIM-3 (hu TIM-3) (human, UniProt Q8TDQ0 22-200, limits assumed); experiment: SPR (Biacore 4000), antibody captured via anti-human Fc
T1 construct: Soluble protein used for SPR; also called wild-type TIM-3

[2] = molecular target: T1, wild-type human TIM-3 (hu TIM-3); experiment: as above; remark: listed apart in the source
[3] = molecular target: T2, rhTIM-3-Fc AF647 (human, UniProt Q8TDQ0 22-200, AF647 label); experiment: flow cytometry; M6903 pre-incubated with rhTIM-3-Fc AF647, inhibition of its binding to PtdSer on apoptotic Jurkat cells
T2 construct: also called rhTIM-3 AF647; not shown: Fc part

[4] = molecular target: T3, T Cell Immunoglobulin and Mucin Domain-3 (TIM-3) on human blood cells (human, UniProt Q8TDQ0 22-301); experiment: flow cytometry, target occupancy on CD14+ monocytes in human whole blood; unoccupied TIM-3 detected with the competing anti-TIM-3(2E2)-APC; average of 10 donors
T3 construct: whole, on cells; also called TIM-3 on CD14+ monocytes; HAVCR2

[5] = molecular target: T3, T Cell Immunoglobulin and Mucin …; experiment: Flow cytometry on human whole blood, target occupancy on CD14+ monocytes, donor KP46231. Unoccupied TIM-3 was detected with the competing anti-TIM-3 (2E2)-APC.
[6] = molecular target: T3, T Cell Immunoglobulin and Mucin …; experiment: Flow cytometry on human whole blood, target occupancy on CD14+ monocytes, donor KP46315. Unoccupied TIM-3 was detected with the competing anti-TIM-3 (2E2)-APC.
[7] = molecular target: T3, T Cell Immunoglobulin and Mucin …; experiment: Flow cytometry on human whole blood, target occupancy on CD14+ monocytes, donor KP46318 (assigned by elimination of the other line styles). Unoccupied TIM-3 was detected with the competing anti-TIM-3 (2E2)-APC.

B1: M6903 (anti-TIM3-3903E11(VL1.3,VH1.2)-IgG2h(FN-AQ,322A)-delK) (antibody, V domains shown)
VH: not shown
VL: QSALTQPRSVSGSPGQSVTISCTGTSSDVGGYNYVSWYQQHPGKAPKLMIYDVSKRPSGVPDRFSGSKSGNTASLTISGLQAEDEADYYCSSYADSVVFGGGTKVTVLG
notes: Anti-TIM-3 (A16-019-1), used in the target occupancy assay, is said to be identical to M6903 but produced in Expi293F instead of CHOK1SV cells; it is kept under this molecule; also called 3903E11 (VL1.3,VH1.2)-IgG2h(FN-AQ,322A)-delK antibody; anti-TIM-3 (A16-019-1)
Q: Which results are given for B1?
A: Kd [1]: 6.2 nM; Kd [2]: 5.7 nM; IC50 [3]: 4.44 nM; EC50 [4]: 0.111 µg/mL; EC50 (read off the curve) [5]: ~0.07 µg/mL; EC50 (read off the curve) [6]: ~0.07 µg/mL; EC50 (read off the curve) [7]: ~0.07 µg/mL
